Values quoted from earlier work, collected in article PMC5735807.

Experiments:
[1] = target: CD36 (Homo sapiens) (UniProt P16671)
[2] = target: Fas (Homo sapiens) (UniProt P25445)
Fas (Homo sapiens), sequence (P25445 26-335): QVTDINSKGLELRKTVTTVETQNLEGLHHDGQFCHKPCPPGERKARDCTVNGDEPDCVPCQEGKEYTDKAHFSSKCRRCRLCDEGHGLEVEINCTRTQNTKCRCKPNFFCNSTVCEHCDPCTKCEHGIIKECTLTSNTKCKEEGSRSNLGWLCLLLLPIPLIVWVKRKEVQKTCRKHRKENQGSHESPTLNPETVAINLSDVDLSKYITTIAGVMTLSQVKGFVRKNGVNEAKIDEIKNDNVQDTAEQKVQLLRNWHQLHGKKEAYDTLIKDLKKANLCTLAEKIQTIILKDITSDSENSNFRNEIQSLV

CD36 (Homo sapiens), sequence (P16671 2-472): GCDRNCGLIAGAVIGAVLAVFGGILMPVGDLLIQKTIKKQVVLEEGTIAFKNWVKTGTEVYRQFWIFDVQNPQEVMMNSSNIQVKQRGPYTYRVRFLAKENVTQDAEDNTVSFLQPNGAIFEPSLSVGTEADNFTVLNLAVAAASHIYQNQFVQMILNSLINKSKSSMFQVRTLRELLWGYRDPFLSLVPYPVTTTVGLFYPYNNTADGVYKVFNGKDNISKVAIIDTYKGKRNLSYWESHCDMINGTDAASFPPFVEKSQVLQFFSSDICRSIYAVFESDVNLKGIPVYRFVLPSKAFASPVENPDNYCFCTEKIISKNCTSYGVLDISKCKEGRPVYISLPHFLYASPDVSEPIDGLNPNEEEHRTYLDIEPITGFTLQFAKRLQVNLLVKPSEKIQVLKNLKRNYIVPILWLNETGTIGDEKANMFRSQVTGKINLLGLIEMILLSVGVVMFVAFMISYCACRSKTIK
TSP1, sequence (P07996 19-1170): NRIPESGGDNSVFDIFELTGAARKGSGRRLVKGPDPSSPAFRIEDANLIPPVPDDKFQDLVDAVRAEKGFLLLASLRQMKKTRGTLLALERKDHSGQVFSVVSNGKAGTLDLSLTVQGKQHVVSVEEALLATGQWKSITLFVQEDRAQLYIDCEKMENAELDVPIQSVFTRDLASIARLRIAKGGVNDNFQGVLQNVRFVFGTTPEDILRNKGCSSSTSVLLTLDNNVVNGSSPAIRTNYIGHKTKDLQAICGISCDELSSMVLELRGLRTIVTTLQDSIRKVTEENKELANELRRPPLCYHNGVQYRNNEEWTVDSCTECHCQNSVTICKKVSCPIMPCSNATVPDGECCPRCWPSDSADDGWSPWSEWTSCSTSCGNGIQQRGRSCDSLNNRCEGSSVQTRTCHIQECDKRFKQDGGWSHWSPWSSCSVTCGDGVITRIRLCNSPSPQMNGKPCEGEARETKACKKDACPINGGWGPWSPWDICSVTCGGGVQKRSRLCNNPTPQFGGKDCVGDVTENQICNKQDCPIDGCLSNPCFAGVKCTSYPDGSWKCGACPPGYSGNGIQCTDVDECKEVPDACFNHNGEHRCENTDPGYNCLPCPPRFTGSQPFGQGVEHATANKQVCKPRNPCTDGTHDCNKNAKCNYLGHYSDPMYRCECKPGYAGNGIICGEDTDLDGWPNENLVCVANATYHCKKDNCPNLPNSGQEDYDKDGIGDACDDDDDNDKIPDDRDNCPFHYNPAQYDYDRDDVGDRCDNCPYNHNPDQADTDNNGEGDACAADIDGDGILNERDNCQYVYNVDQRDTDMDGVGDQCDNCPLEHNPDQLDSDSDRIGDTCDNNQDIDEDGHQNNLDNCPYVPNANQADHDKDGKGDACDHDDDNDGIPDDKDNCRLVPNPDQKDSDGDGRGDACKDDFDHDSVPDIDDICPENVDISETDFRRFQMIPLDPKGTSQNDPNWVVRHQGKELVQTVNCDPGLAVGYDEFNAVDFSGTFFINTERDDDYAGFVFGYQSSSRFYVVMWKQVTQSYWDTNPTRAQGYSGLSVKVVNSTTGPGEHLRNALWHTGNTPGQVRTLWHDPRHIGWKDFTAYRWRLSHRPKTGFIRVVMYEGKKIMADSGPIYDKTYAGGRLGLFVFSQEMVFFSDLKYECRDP
FasL, sequence (P48023 1-81): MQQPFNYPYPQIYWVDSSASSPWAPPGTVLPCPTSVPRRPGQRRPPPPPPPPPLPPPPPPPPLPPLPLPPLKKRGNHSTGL

In the case of TSP1 (from UniProt P07996), the Kd [1] is given as 230 nM.
For FasL (from UniProt P48023), the Kd [2] is listed as 0.4 nM.
